Test results from the supplement of paper PMC10567573.

B1: PLD5 (parent)
chain: WIVDKQHVYIGSAGLDWQSLGQMK
B2: KLHDC10 (parent)
chain: PSLLELAWEKLLAAFPNLANLSRT

Variants of: B1
Assay: protein stability index of a GFP-peptide fusion (GPS, HEK-293T) (PSI 1-6); higher = more stable
Details: c terminus: a fixed tail appended
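Also: lentivirally expressed fusions sorted by FACS into six bins by GFP to DsRed ratio, PSI derived from sequencing read proportions per bin multiplied by bin number.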

In order of falling protein stability index:
1. WIVKKQHVYIGSAGLDWQSLGQMK  4.58
2. WIVDKWHVYIGSAGLDWQSLGQMK  4.19
3. WIVDAQHVYIGSAGLDWQSLGQMK  4.17
4. WIVDFQHVYIGSAGLDWQSLGQMK  4.11
5. WIVTKQHVYIGSAGLDWQSLGQMK  4.09
6. WIVRKQHVYIGSAGLDWQSLGQMK  3.94
7. WIVVKQHVYIGSAGLDWQSLGQMK  3.83
8. WIVDKQWVYIGSAGLDWQSLGQMK  3.59
9. WIVDKGHVYIGSAGLDWQSLGQMK  3.38
10. WIVDIQHVYIGSAGLDWQSLGQMK  3.22
11. IIVDKQHVYIGSAGLDWQSLGQMK  3.17
12. WIVNKQHVYIGSAGLDWQSLGQMK  3.09
13. WIVDTQHVYIGSAGLDWQSLGQMK  2.98
14. WIVDKLHVYIGSAGLDWQSLGQMK  2.87
15. RIVDKQHVYIGSAGLDWQSLGQMK  2.77
16. GIVDKQHVYIGSAGLDWQSLGQMK  2.67
17. WPVDKQHVYIGSAGLDWQSLGQMK  2.65
18. WIIDKQHVYIGSAGLDWQSLGQMK  2.64
19. WIVDKQAVYIGSAGLDWQSLGQMK  2.63
20. WIVDKMHVYIGSAGLDWQSLGQMK  2.63
21. WIVDKQMVYIGSAGLDWQSLGQMK  2.6
22. WIVDKQYVYIGSAGLDWQSLGQMK  2.6
23. QIVDKQHVYIGSAGLDWQSLGQMK  2.5
24. WQVDKQHVYIGSAGLDWQSLGQMK  2.48
25. WIVDEQHVYIGSAGLDWQSLGQMK  2.42
26. TIVDKQHVYIGSAGLDWQSLGQMK  2.41
27. FIVDKQHVYIGSAGLDWQSLGQMK  2.4
28. WIVHKQHVYIGSAGLDWQSLGQMK  2.37
29. WIVDKQRVYIGSAGLDWQSLGQMK  2.36
30. WINDKQHVYIGSAGLDWQSLGQMK  2.35
31. WIVDWQHVYIGSAGLDWQSLGQMK  2.34
32. KIVDKQHVYIGSAGLDWQSLGQMK  2.32
33. PIVDKQHVYIGSAGLDWQSLGQMK  2.32
34. WAVDKQHVYIGSAGLDWQSLGQMK  2.32
35. WIVDKRHVYIGSAGLDWQSLGQMK  2.3
36. WIVDCQHVYIGSAGLDWQSLGQMK  2.29
37. WIVSKQHVYIGSAGLDWQSLGQMK  2.29
38. WIVDKQPVYIGSAGLDWQSLGQMK  2.27
39. WIVDKQTVYIGSAGLDWQSLGQMK  2.26
40. WIVDKQSVYIGSAGLDWQSLGQMK  2.26
41. EIVDKQHVYIGSAGLDWQSLGQMK  2.24
42. YIVDKQHVYIGSAGLDWQSLGQMK  2.23
43. SIVDKQHVYIGSAGLDWQSLGQMK  2.2
44. NIVDKQHVYIGSAGLDWQSLGQMK  2.19
45. WEVDKQHVYIGSAGLDWQSLGQMK  2.18
46. WIVDKQGVYIGSAGLDWQSLGQMK  2.17
47. WRVDKQHVYIGSAGLDWQSLGQMK  2.17
48. WDVDKQHVYIGSAGLDWQSLGQMK  2.16
49. DIVDKQHVYIGSAGLDWQSLGQMK  2.15
50. WIWDKQHVYIGSAGLDWQSLGQMK  2.13
51. WIVDNQHVYIGSAGLDWQSLGQMK  2.12
52. LIVDKQHVYIGSAGLDWQSLGQMK  2.12
53. HIVDKQHVYIGSAGLDWQSLGQMK  2.12
54. WIVMKQHVYIGSAGLDWQSLGQMK  2.12
55. AIVDKQHVYIGSAGLDWQSLGQMK  2.11
56. WIGDKQHVYIGSAGLDWQSLGQMK  2.1
57. WIVDKHHVYIGSAGLDWQSLGQMK  2.1
58. WIEDKQHVYIGSAGLDWQSLGQMK  2.09
59. WISDKQHVYIGSAGLDWQSLGQMK  2.09
60. WSVDKQHVYIGSAGLDWQSLGQMK  2.08
61. WIVDKVHVYIGSAGLDWQSLGQMK  2.08
62. WIVDKFHVYIGSAGLDWQSLGQMK  2.05
63. WIDDKQHVYIGSAGLDWQSLGQMK  2.02
64. WILDKQHVYIGSAGLDWQSLGQMK  2.01
65. WIVDKQDVYIGSAGLDWQSLGQMK  1.98
66. WIPDKQHVYIGSAGLDWQSLGQMK  1.97
67. WIVDKQQVYIGSAGLDWQSLGQMK  1.96
68. WIVWKQHVYIGSAGLDWQSLGQMK  1.96
69. WIFDKQHVYIGSAGLDWQSLGQMK  1.96
70. WIVDKEHVYIGSAGLDWQSLGQMK  1.95
71. WIVDRQHVYIGSAGLDWQSLGQMK  1.94
72. WKVDKQHVYIGSAGLDWQSLGQMK  1.9
73. WHVDKQHVYIGSAGLDWQSLGQMK  1.88
74. WLVDKQHVYIGSAGLDWQSLGQMK  1.88
75. WGVDKQHVYIGSAGLDWQSLGQMK  1.87
76. WIADKQHVYIGSAGLDWQSLGQMK  1.86
77. WWVDKQHVYIGSAGLDWQSLGQMK  1.86
78. WIVLKQHVYIGSAGLDWQSLGQMK  1.84
79. WIKDKQHVYIGSAGLDWQSLGQMK  1.84
80. WIVDKTHVYIGSAGLDWQSLGQMK  1.84
81. WIVAKQHVYIGSAGLDWQSLGQMK  1.83
82. WIQDKQHVYIGSAGLDWQSLGQMK  1.83
83. WCVDKQHVYIGSAGLDWQSLGQMK  1.83
84. WYVDKQHVYIGSAGLDWQSLGQMK  1.82
85. WIVDGQHVYIGSAGLDWQSLGQMK  1.8
86. VIVDKQHVYIGSAGLDWQSLGQMK  1.79
87. WIVDQQHVYIGSAGLDWQSLGQMK  1.74
88. WIVDPQHVYIGSAGLDWQSLGQMK  1.74
89. WIHDKQHVYIGSAGLDWQSLGQMK  1.74
90. WIVDKQHAYIGSAGLDWQSLGQMK  1.66
91. WIVDKKHVYIGSAGLDWQSLGQMK  1.66
92. WFVDKQHVYIGSAGLDWQSLGQMK  1.64
93. WIVDYQHVYIGSAGLDWQSLGQMK  1.61
94. WNVDKQHVYIGSAGLDWQSLGQMK  1.61
95. WICDKQHVYIGSAGLDWQSLGQMK  1.6
96. CIVDKQHVYIGSAGLDWQSLGQMK  1.59
97. WITDKQHVYIGSAGLDWQSLGQMK  1.59
98. WIVDKQHCYIGSAGLDWQSLGQMK  1.58
99. WIVDKNHVYIGSAGLDWQSLGQMK  1.58
100. WIYDKQHVYIGSAGLDWQSLGQMK  1.56
101. WIVDHQHVYIGSAGLDWQSLGQMK  1.55
102. WIVDKQKVYIGSAGLDWQSLGQMK  1.54
103. WIRDKQHVYIGSAGLDWQSLGQMK  1.52
104. WIVDKAHVYIGSAGLDWQSLGQMK  1.51
105. WIMDKQHVYIGSAGLDWQSLGQMK  1.5
106. WMVDKQHVYIGSAGLDWQSLGQMK  1.5
107. WIVDKPHVYIGSAGLDWQSLGQMK  1.5
108. WIVDKQNVYIGSAGLDWQSLGQMK  1.48
109. WTVDKQHVYIGSAGLDWQSLGQMK  1.46
110. WIVQKQHVYIGSAGLDWQSLGQMK  1.45
111. MIVDKQHVYIGSAGLDWQSLGQMK  1.43
112. WIVDKQEVYIGSAGLDWQSLGQMK  1.42
113. WIVDDQHVYIGSAGLDWQSLGQMK  1.42
114. WIVDKYHVYIGSAGLDWQSLGQMK  1.41
115. WIVDKDHVYIGSAGLDWQSLGQMK  1.4
116. WIVGKQHVYIGSAGLDWQSLGQMK  1.39
117. WIVEKQHVYIGSAGLDWQSLGQMK  1.39
118. WVVDKQHVYIGSAGLDWQSLGQMK  1.39
119. WIVDKQCVYIGSAGLDWQSLGQMK  1.37
120. WIVDKSHVYIGSAGLDWQSLGQMK  1.37
121. WIVPKQHVYIGSAGLDWQSLGQMK  1.13
122. WIVDSQHVYIGSAGLDWQSLGQMK  1.07
123. WIVDKCHVYIGSAGLDWQSLGQMK  1

Variants of: B2
Assay: as above
Details: c terminus: a fixed tail appended

In order of falling protein stability index:
1. PSLLEWAWEKLLAAFPNLANLSRT  3.58
2. PSLSELAWEKLLAAFPNLANLSRT  3.52
3. PSLQELAWEKLLAAFPNLANLSRT  3.05
4. PSLLELAWEKLLAAFPWLANLSRT  2.94
5. KSLLELAWEKLLAAFPNLANLSRT  2.79
6. PSLLELAWEKVLAAFPNLANLSRT  2.5
7. PSLLYLAWEKLLAAFPNLANLSRT  2.47
8. PSLLELAWELLLAAFPNLANLSRT  2.42
9. PSLLELAWEKLLAAFPNLANYSRT  2.4
10. PSLLELAWEKLLAAVPNLANLSRT  2.38
11. PSLLELAWEKLLAAEPNLANLSRT  2.36
12. PSLLELAWEKLLAAFPNEANLSRT  2.35
13. PSLLELAWEKLLAAFPNLANLCRT  2.34
14. PSLLELAWQKLLAAFPNLANLSRT  2.34
15. PSLLELAWEKLLAAFPNLANLSRY  2.32
16. PSLLELAWEKLLAAFPNLENLSRT  2.31
17. PSLLELAWEKLLAAFPNLVNLSRT  2.3
18. PSLLELQWEKLLAAFPNLANLSRT  2.29
19. PSLLELAWEKLLAAFPNLNNLSRT  2.29
20. PSLLELAWEKLLAAFPNCANLSRT  2.23
21. PSLLELAWEKLLAAAPNLANLSRT  2.23
22. PSLLETAWEKLLAAFPNLANLSRT  2.23
23. PSLLELAWEKLLAAFPNLANLSRE  2.22
24. PSLLELAWEKLLAAFDNLANLSRT  2.2
25. PSLLELAWEKLLAMFPNLANLSRT  2.19
26. PSLLELAWEKYLAAFPNLANLSRT  2.19
27. PSLLELAWEKQLAAFPNLANLSRT  2.19
28. PLLLELAWEKLLAAFPNLANLSRT  2.19
29. NSLLELAWEKLLAAFPNLANLSRT  2.17
30. PSLLELAWEKLLAAFPNLANCSRT  2.16
31. PSDLELAWEKLLAAFPNLANLSRT  2.16
32. PSLLELAWEKLLAAFPNPANLSRT  2.15
33. PSLLELDWEKLLAAFPNLANLSRT  2.14
34. PSLLELAWEKLLAAFQNLANLSRT  2.12
35. PSLLELAWEKLLAPFPNLANLSRT  2.07
36. PSLLELAWEKLLAAFPNLANLSRF  2.06
37. PSLLFLAWEKLLAAFPNLANLSRT  2.06
38. PSLLELAWEKLLAAHPNLANLSRT  2.06
39. PELLELAWEKLLAAFPNLANLSRT  2.03
40. PSLLELAWEKLLAAFPNLANLSHT  2.02
41. PTLLELAWEKLLAAFPNLANLSRT  1.96
42. PSLLELAWEKLLAAFPNLANLSFT  1.96
43. PSLLELAWEGLLAAFPNLANLSRT  1.93
44. PSLLECAWEKLLAAFPNLANLSRT  1.92
45. CSLLELAWEKLLAAFPNLANLSRT  1.86
46. PSLLELAWEALLAAFPNLANLSRT  1.84
47. PSLLELAWEKLLAAFPNHANLSRT  1.84
48. PSLLELAWEKLLAAFANLANLSRT  1.84
49. PSLPELAWEKLLAAFPNLANLSRT  1.83
50. PSLLELAWEKLCAAFPNLANLSRT  1.83
51. PSLLELAWEKLLAAFPNWANLSRT  1.82
52. PSLLEEAWEKLLAAFPNLANLSRT  1.81
53. PSLLILAWEKLLAAFPNLANLSRT  1.8
54. PSLLELAWEKLLAAFPNLALLSRT  1.77
55. PSLLELAWESLLAAFPNLANLSRT  1.72
56. PSLLELAWVKLLAAFPNLANLSRT  1.72
57. PGLLELAWEKLLAAFPNLANLSRT  1.72
58. PSSLELAWEKLLAAFPNLANLSRT  1.7
59. PSLLELAWEKGLAAFPNLANLSRT  1.69
60. PSMLELAWEKLLAAFPNLANLSRT  1.65
61. PSLLELAWEPLLAAFPNLANLSRT  1.64
62. PSLLEGAWEKLLAAFPNLANLSRT  1.64
63. PSILELAWEKLLAAFPNLANLSRT  1.56
64. PSLLELAWEKLLAAFPKLANLSRT  1.43
65. PSLLELAWEKLLAAFPNLANLSDT  1.28
